Experimental data reported in patent publication US20250313627A1 (FUSE BIOTHERAPEUTICS, published 2025).

Legend:
[1] = target: T1, human ROR1 (Receptor Tyrosine Kinase-Like Orphan Receptor 1) on the cell surface (human, UniProt Q01973 30-937); test: flow cytometry on MDA-MB-231 ROR1 normal cells (about 35,000 ROR1 per cell), secondary antibody to the IgG1 Fc
T1 construct: whole, on cells; engineered into B16-F10 (high density) and LS174T (low density) cells; also called B16-F10-ROR1-H; LS174T-ROR1-L
T1 sequence (Q01973 30-937): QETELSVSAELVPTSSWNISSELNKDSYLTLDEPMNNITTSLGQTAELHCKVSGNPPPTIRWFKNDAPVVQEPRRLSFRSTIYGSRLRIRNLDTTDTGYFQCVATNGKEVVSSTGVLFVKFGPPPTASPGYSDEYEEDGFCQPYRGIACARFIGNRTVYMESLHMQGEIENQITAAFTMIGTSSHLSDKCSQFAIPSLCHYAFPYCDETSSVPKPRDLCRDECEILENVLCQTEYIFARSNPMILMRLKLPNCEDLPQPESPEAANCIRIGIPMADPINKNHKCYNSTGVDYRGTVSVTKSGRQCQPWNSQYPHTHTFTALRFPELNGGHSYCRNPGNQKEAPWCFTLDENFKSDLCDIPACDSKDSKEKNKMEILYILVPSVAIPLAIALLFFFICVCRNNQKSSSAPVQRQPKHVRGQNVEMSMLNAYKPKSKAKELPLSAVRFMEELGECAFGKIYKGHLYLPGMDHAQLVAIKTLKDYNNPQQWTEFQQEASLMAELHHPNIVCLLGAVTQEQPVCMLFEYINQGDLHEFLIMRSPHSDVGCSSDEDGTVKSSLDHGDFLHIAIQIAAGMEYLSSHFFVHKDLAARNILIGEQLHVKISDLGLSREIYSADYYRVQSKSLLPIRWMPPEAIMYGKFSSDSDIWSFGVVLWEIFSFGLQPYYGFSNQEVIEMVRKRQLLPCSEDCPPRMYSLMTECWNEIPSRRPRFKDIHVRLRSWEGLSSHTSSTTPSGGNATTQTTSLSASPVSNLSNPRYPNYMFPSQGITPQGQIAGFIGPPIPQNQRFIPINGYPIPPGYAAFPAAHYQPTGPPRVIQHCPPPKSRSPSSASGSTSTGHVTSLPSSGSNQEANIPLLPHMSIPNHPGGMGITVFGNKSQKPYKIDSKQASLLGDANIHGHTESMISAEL
Protocol: (§1) Binding of 2A11 (black line), 5A1 (dark grey line) and VHH8 (medium grey line) were tested in TCE format 12A. The commercial ROR1 specific Ab reported to bind the ROR1-Ig domain 2A2 (light grey line), served as the positive control and anti-HEL (dotted black line) served as the negative control. To better visualize binding of each test article to the three cells lines, we plotted MFI on the y-axis for each test article for HEK-293 cells (negative control; FIG. 4I), HEK-293 cells transfected with full length human ROR1 (FIG. 4J) and HEK-293 cells transfected with the ROR1 Ig domain linked to the cell surface via the GPI linker from CD59 (FIG. 4K).
(§2) Adherent target cells were collected by brief TrypLE treatment while suspension cells were directly collected. Collected cells were washed once with PBS by centrifugation at 500×g for 5 minutes at room temperature and added to V-bottom 96-well plate (200,000-300,000 cells per well). To prepared Live/Dead fixable red, one vial of powder was dissolved into 50 uL of DMSO to make stock solution and then diluted 1 uL of stock Live/Dead fixable red in 1 mL of PBS to prepare the working solution. 100 uL of Live/Dead fixable red working buffer was then added to the cell in the V-bottom 96-well plate (200,000-300,000 cells per well) and incubated for 15 minutes at room temperature. After the 15-minute incubation, the cells were washed twice with PBS by centrifugation at 500 g for 5 minutes at room temperature. The cells were then cultured with antibodies at different concentrations in 100 uL of Biolegend staining buffer at 4° C. for 45 minutes. After the 45-minute incubation with primary antibody, the cells were washed with PBS by centrifugation at 500 g for 5 minutes at room temperature. The cells were then cultured with PE-Cy7-conjugated mouse-anti-human IgG secondary antibody in Biolegend staining buffer at 4° C. for 45 minutes. […] The samples were then analyzed on Cytek flow cytometer.

[2] = target: T1, human ROR1 (Receptor Tyrosine …); test: flow cytometry on MDA-MB-231 ROR1 low cells (about 17,000 ROR1 per cell), secondary antibody to the IgG1 Fc
Protocol: as §1, §2

[3] = target: T2, recombinant His tagged human ROR1 (human, UniProt Q01973 30-403, limits assumed); test: BLI (Octet), FUSE protein loaded on the biosensor, His tagged ROR1 in solution
T2 construct: Analyte in the BLI assay; also called Human ROR1-His; recombinant ROR1
T2 sequence (Q01973 30-403 limits assumed): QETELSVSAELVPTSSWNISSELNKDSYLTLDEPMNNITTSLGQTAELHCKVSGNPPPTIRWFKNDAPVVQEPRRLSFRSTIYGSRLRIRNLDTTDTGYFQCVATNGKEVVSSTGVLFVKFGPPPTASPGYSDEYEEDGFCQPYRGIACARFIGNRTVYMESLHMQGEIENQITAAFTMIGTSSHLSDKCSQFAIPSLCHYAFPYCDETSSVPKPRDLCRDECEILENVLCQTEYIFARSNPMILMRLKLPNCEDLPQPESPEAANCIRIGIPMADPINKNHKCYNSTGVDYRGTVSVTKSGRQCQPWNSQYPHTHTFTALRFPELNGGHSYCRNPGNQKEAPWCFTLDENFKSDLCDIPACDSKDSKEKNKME
Protocol: (§3) As shown in FIGS. 5A-5D, the binding affinities (KD) of TCEs for ROR1 were assessed. We examined the magnitude by which several TCEs and mutants thereof bind to recombinant ROR1. Kinetic binding graphs were generated via Bio-Layer Interferometry (BLI) using an Octet system. For each TCE, the biosensor tips were coated with FUSE proteins at 15 μg/ml and probed with either recombinant His tagged ROR1 at concentrations ranging from 100 pM to 10 μM. […] The binding affinity (KD), on rate (k-on) and off rate (k-dis), are summarized for ROR1 in FIG. 5D.
(§4) Antibodies were prepared in 1×PBS with 0.02% Tween-20 with the final concentration of 15 ug/ml. Human ROR1-His or CD3e-His protein were also prepared, and serial diluted (4-fold dilution ranging from 400 nM to 0.098 nM) in 1×PBS with 0.02% Tween-20. The biosensors were pre-moistened in 200 uL of 1×PBS with 0.02% Tween-20 for 10 minutes. Meanwhile, Octet BLI system (ForteBio) was prewarmed for 30 minutes and the flow rate was set to 1000 rpm. The biosensors (Anti-hIgG Fc Capture biosensor) were soaked in 250 uL of 1×PBS with 0.02% Tween-20 for 60 seconds at 30° C. to get an initial baseline reading. After the 60-second baseline reading, the biosensors were exposed to testing antibody for 300 seconds at 30° C. for the association between antibody and the biosensors (coupling antibody with biosensor). The biosensors with antibody were then exposed to human ROR1 or CD3e in 250 uL of 1×PBS with 0.02% Tween-20 at 30° C. for 300 seconds for the association reaction between antibody and human ROR1 or CD3e (association curve). After 300-second association reaction between antibody and antigen, the biosensors with antibody and antigen were then exposed to 250 uL of 1×PBS with 0.02% Tween-20 at 30° C. for 300 seconds for the dissociation reaction between antibody and […]. The binding affinity was calculated by the built-in data fitting algorithm.

[4] = target: T1, human ROR1 (Receptor Tyrosine …); test: flow cytometry on MDA-MB-231 ROR1 high cells (about 500,000 ROR1 per cell), secondary antibody to the IgG1 Fc
Protocol: as §1, §2

[5] = target: T1, human ROR1 (Receptor Tyrosine …); test: flow cytometry on MDA-MB-231 ROR1 super high cells (about 2,000,000 ROR1 per cell), secondary antibody to the IgG1 Fc
Protocol: as §1, §2

[6] = target: T2, recombinant His tagged human ROR1; test: BLI (Octet), FUSE protein loaded on the biosensor, His tagged ROR1 in solution; column 'kdis(1/s)'
Protocol: as §3, §4

B1: FUSE-211 (bispecific antibody, human IgG1, lambda, L234A L235A)
chain: QVQLQESGGGSVPAGGSLRLSCAASGSTYSANCMGWFRQAPGKEREEVASMSIRSGRTYYSDSVKGRFTISQDGSKNTLYLQLNSLKAEDTALYYCAAAYGGSRCVYNYRGQGTQVTVSSGGGGSGGGGSGGGGSQVQLQESGGGSVPAGGSLRLSCAASGSTYSANCMGWFRQAPGKEREEVASMSIRSGRTYYSDSVKGRFTISQDGSKNTLYLQLNSLKAEDTALYYCAAAYGGSRCVYNYRGQGTQVTVSSEPKSSDKTHTCPPCPAPEAAGGPSVFLFPPKPKDTLMISRTPEVTCVVVDVSHEDPEVKFNWYVDGVEVHNAKTKPREEQYNSTYRVVSVLTVLHQDWLNGKEYKCKVSNKALPAPIEKTISKAKGQPREPQVYTLPPSREEMTKNQVSLSCAVKGFYPSDIAVEWESNGQPENNYKTTPPVLDSDGSFFLVSKLTVDKSRWQQGNVFSCSVMHEALHNRFTQKSLSLSPGK
heavy: EVQLVESGGGLVQPGGSLRLSCAASGFTFSTYAMNWVRQAPGKGLEWVARIRSKYNNYATYYADSVKDRFTISRDDSKNTLYLQMNSLRAEDTAVYYCARHGNFGNSYVSWFAYWGQGTMVTVSSASTKGPSVFPLAPSSKSTSGGTAALGCLVKDYFPEPVTVSWNSGALTSGVHTFPAVLQSSGLYSLSSVVTVPSSSLGTQTYICNVNHKPSNTKVDKKVEPKSCDKTHTCPPCPAPEAAGGPSVFLFPPKPKDTLMISRTPEVTCVVVDVSHEDPEVKFNWYVDGVEVHNAKTKPREEQYNSTYRVVSVLTVLHQDWLNGKEYKCKVSNKALPAPIEKTISKAKGQPREPQVYTLPPSREEMTKNQVSLWCLVKGFYPSDIAVEWESNGQPENNYKTTPPVLDSDGSFFLYSKLTVDKSRWQQGNVFSCSVMHEALHNHYTQKSLSLSPGK
light: QAVVTQEPSLTVSPGGTVTLTCRSSTGAVTTSNYANWVQQKPGQAPRGLIGGTNKRAPGTPARFSGSLLGGKAALTLSGVQPEDEAEYYCALWYSNLWVFGGGTKLTVLGQPKAAPSVTLFPPSSEELQANKATLVCLISDFYPGAVTVAWKADSSPVKAGVETTTPSKQSNNKYAASSYLSLTPEQWKSHRSYSCQVTHEGSTVEKTVAPTECS
notes: Hole chain: 2A11-linker-2A11-Fc; knob chain: anti-CD3 Fab heavy chain-Fc; anti-CD3 light chain; also called format 11A incorporating 2A11
Work on B1 yielded an EC50 [1] of 0.45 nM, an EC50 [2] of 0.4 nM and a Kd [3] of 17 nM. It also gave a kon [3] of 135000 M⁻¹ s⁻¹, an EC50 [4] of 0.55 nM and an EC50 [5] of 0.19 nM. The koff [6] was 0.00229 s⁻¹.
